Here are results for six proteins from publication PMC6471336, “Production and Characterization of Recombinant Wild Type Uricase from Indonesian Coelacanth (L. menadoensis) and Improvement of Its Thermostability by In Silico Rational Design and Disulphide Bridges Engineering” (International Journal of Molecular Sciences, 2019).

Substrate in the series “purified protein”: O=c1[nH]c(=O)c2[nH]c(=O)[nH]c2[nH]1
In words: purified protein. Format: biochemical, Latimeria menadoensis. To be noted: 50 mM sodium borate pH 8.0, 30 °C, 15-120 µM uric acid.

Series [1] concerns the molecule itself. In words: SEC; 16/60 Sephacryl S-300 HR gel-filtration column; molecular weight under native condition calculated from the retention volume (Kav) against a calibration curve.

B1: L. menadoensis uricase, wild type (LM-UOX-6His) (enzyme, UniProt M3XGK0 1-306, looked up)
chain: MSHYVSSTRFQKDTDVEFVRTGYGKNIVKVLHIKREGKTHYIKEVEVAVQLALKSRKDYLYGDNSDIIPTDTMKNTVHALAKLKGINTIEEFAMDICEHFLTSFNHVTRANTYVEEAPWKRMEKNEVKHVHAFIYSPEATRFCEVEHHQNEPPVVHSGIKDMKVLKTTQSGFEGFVKDRFTTLPEVTDRCFSTVIYSKWLYNRSKNIDFDAAWKTVYDVIIEKFAGPYECGEYSPSVQKTLYETQVLCLNRVPEIEEVEIVMPNKHYFTIDMSKIGIVNKDEVLLPLDNPSGNITGTVRRKAHSKL
notes: Uricase (urate oxidase) of Latimeria menadoensis, 306 amino acids; synthetic cDNA amplified with primers from the start codon to the last codon (no stop codon), cloned NdeI/XhoI into pET20b(+); The His6 tag is joined to the protein by two residues from the XhoI site; also called WT; WT LM-UOX; source: E. coli BL21(DE3), purified (Ni-NTA IMAC, gel filtration); not shown: His6, C-terminal, kept
What is called Km is the substrate concentration at which the rate is half of its maximum. The term kcat denotes the maximal rate divided by the concentration of active sites. What is called kcat/Km is the turnover number divided by the Michaelis constant. Usually stoichiometry N stands for the number of molecules, sites or subunits per partner or assembly. On to B1, for which, in the series “purified protein”, the Km amounted to 18.43 ± 0.4 µM, the kcat stood at 29.9 ± 0.3 s⁻¹ and the kcat/Km worked out at 1.62e+06 M⁻¹ s⁻¹. The “stoichiometry N” value in series [1] was 4.

B2: L. menadoensis uricase A132C/A225C mutant (enzyme, UniProt M3XGK0 1-306, looked up)
chain: MSHYVSSTRFQKDTDVEFVRTGYGKNIVKVLHIKREGKTHYIKEVEVAVQLALKSRKDYLYGDNSDIIPTDTMKNTVHALAKLKGINTIEEFAMDICEHFLTSFNHVTRANTYVEEAPWKRMEKNEVKHVHCFIYSPEATRFCEVEHHQNEPPVVHSGIKDMKVLKTTQSGFEGFVKDRFTTLPEVTDRCFSTVIYSKWLYNRSKNIDFDAAWKTVYDVIIEKFCGPYECGEYSPSVQKTLYETQVLCLNRVPEIEEVEIVMPNKHYFTIDMSKIGIVNKDEVLLPLDNPSGNITGTVRRKAHSKL
notes: His6 tag joined by two residues from the XhoI site, as in m1; source: E. coli BL21(DE3), purified (Ni-NTA IMAC, gel filtration); not shown: His6, C-terminal, kept
In the case of B2, in “purified protein”, the Km was 39.19 ± 0.5 µM, the kcat stood at 58.2 ± 0.6 s⁻¹ and the kcat/Km was 1.49e+06 M⁻¹ s⁻¹. Also, the “stoichiometry N” value in series [1] is 4.

B3: L. menadoensis uricase D288C mutant (enzyme, UniProt M3XGK0 1-306, looked up)
chain: MSHYVSSTRFQKDTDVEFVRTGYGKNIVKVLHIKREGKTHYIKEVEVAVQLALKSRKDYLYGDNSDIIPTDTMKNTVHALAKLKGINTIEEFAMDICEHFLTSFNHVTRANTYVEEAPWKRMEKNEVKHVHAFIYSPEATRFCEVEHHQNEPPVVHSGIKDMKVLKTTQSGFEGFVKDRFTTLPEVTDRCFSTVIYSKWLYNRSKNIDFDAAWKTVYDVIIEKFAGPYECGEYSPSVQKTLYETQVLCLNRVPEIEEVEIVMPNKHYFTIDMSKIGIVNKDEVLLPLCNPSGNITGTVRRKAHSKL
notes: Uricase (urate oxidase) of Latimeria menadoensis, 306 amino acids, same construct as the wild type (pET20LM-UOX) with D288C by site-directed mutagenesis; His6 tag joined by two residues from the XhoI site, as in m1; source: E. coli BL21(DE3), purified (Ni-NTA IMAC, gel filtration); not shown: His6, C-terminal, kept
In the case of B3, in the series “purified protein”, the Km is listed as 189.65 ± 0.2 µM, the kcat stood at 65.07 ± 0.3 s⁻¹ and the kcat/Km worked out at 340000 M⁻¹ s⁻¹. Further, in series [1], the “stoichiometry N” value is 4.

B4: L. menadoensis uricase I27C/N289C mutant (enzyme, UniProt M3XGK0 1-306, looked up)
chain: MSHYVSSTRFQKDTDVEFVRTGYGKNCVKVLHIKREGKTHYIKEVEVAVQLALKSRKDYLYGDNSDIIPTDTMKNTVHALAKLKGINTIEEFAMDICEHFLTSFNHVTRANTYVEEAPWKRMEKNEVKHVHAFIYSPEATRFCEVEHHQNEPPVVHSGIKDMKVLKTTQSGFEGFVKDRFTTLPEVTDRCFSTVIYSKWLYNRSKNIDFDAAWKTVYDVIIEKFAGPYECGEYSPSVQKTLYETQVLCLNRVPEIEEVEIVMPNKHYFTIDMSKIGIVNKDEVLLPLDCPSGNITGTVRRKAHSKL
notes: His6 tag joined by two residues from the XhoI site, as in m1; which cysteines pair (C27 with C289 of the other subunit of a dimer) is a prediction only; source: E. coli BL21(DE3), purified (Ni-NTA IMAC, gel filtration); not shown: His6, C-terminal, kept
For B4, in the series “purified protein”, the Km stood at 35.39 ± 0.1 µM, the kcat amounted to 32.58 ± 0.2 s⁻¹ and the kcat/Km turned out to be 920000 M⁻¹ s⁻¹. Moreover, the “stoichiometry N” value in series [1] was 4.

B5: L. menadoensis uricase S136C mutant (enzyme, UniProt M3XGK0 1-306, looked up)
chain: MSHYVSSTRFQKDTDVEFVRTGYGKNIVKVLHIKREGKTHYIKEVEVAVQLALKSRKDYLYGDNSDIIPTDTMKNTVHALAKLKGINTIEEFAMDICEHFLTSFNHVTRANTYVEEAPWKRMEKNEVKHVHAFIYCPEATRFCEVEHHQNEPPVVHSGIKDMKVLKTTQSGFEGFVKDRFTTLPEVTDRCFSTVIYSKWLYNRSKNIDFDAAWKTVYDVIIEKFAGPYECGEYSPSVQKTLYETQVLCLNRVPEIEEVEIVMPNKHYFTIDMSKIGIVNKDEVLLPLDNPSGNITGTVRRKAHSKL
notes: Uricase (urate oxidase) of Latimeria menadoensis, 306 amino acids, same construct as the wild type (pET20LM-UOX) with S136C by site-directed mutagenesis; His6 tag joined by two residues from the XhoI site, as in m1; source: E. coli BL21(DE3), purified (Ni-NTA IMAC, gel filtration); not shown: His6, C-terminal, kept
Regarding B5, in “purified protein”, the Km was 15.28 ± 0.1 µM, the kcat amounted to 22.49 ± 0.1 s⁻¹ and the kcat/Km is 1.47e+06 M⁻¹ s⁻¹. Besides, in series [1], the “stoichiometry N” value is 4.

B6: L. menadoensis uricase N289C mutant (enzyme, UniProt M3XGK0 1-306, looked up)
chain: MSHYVSSTRFQKDTDVEFVRTGYGKNIVKVLHIKREGKTHYIKEVEVAVQLALKSRKDYLYGDNSDIIPTDTMKNTVHALAKLKGINTIEEFAMDICEHFLTSFNHVTRANTYVEEAPWKRMEKNEVKHVHAFIYSPEATRFCEVEHHQNEPPVVHSGIKDMKVLKTTQSGFEGFVKDRFTTLPEVTDRCFSTVIYSKWLYNRSKNIDFDAAWKTVYDVIIEKFAGPYECGEYSPSVQKTLYETQVLCLNRVPEIEEVEIVMPNKHYFTIDMSKIGIVNKDEVLLPLDCPSGNITGTVRRKAHSKL
notes: Uricase (urate oxidase) of Latimeria menadoensis, 306 amino acids, same construct as the wild type (pET20LM-UOX) with N289C by site-directed mutagenesis; His6 tag joined by two residues from the XhoI site, as in m1; source: E. coli BL21(DE3), purified (Ni-NTA IMAC, gel filtration); not shown: His6, C-terminal, kept
Turning to B6, in “purified protein”, the Km is on record as 30.46 ± 0.1 µM, the kcat was 34.06 ± 0.1 s⁻¹ and the kcat/Km amounted to 1.12e+06 M⁻¹ s⁻¹. Also, the “stoichiometry N” value in series [1] is 4.
